Results published in patent publication US7981863B2, “Treatment of Parkinson's disease with PDGF” (Neuronova AB, priority 2001, dated 2011).

What was measured:
[1] = test system: cultured, non-adherent mouse neurospheres; assay: Intracellular ATP assay, proliferation of cultured mouse neurospheres; format: cell-based; conditions: growth media supplemented with B27; 1 nM-0.0005 nM; 3 days of treatment; FIG. 1
Description: The anterior lateral wall of the lateral ventricle of 5-6 week old mice was enzymatically dissociated in 0.8 mg/ml hyaluronidase and 0.5 mg/ml trypsin in DMEM containing 4.5 mg/ml glucose and 80 units/ml DNase at 37° C. for 20 min. The cells were gently triturated and mixed with three volumes of Neurosphere medium (DMEM/F12, B27 supplement, 125 mM HEPES pH 7.4) containing 20 ng/ml EGF (unless otherwise stated), 100 units/ml penicillin and 100 μg/ml streptomycin. After passing through a 70 μm strainer, the cells were pelleted at 160×g for 5 min. The supernatant was subsequently removed and the cells resuspended in Neurosphere medium supplemented as above, plated out in culture dishes and incubated at 37° C. Neurospheres were ready to be split approximately 7 days after plating.
To split the neurospheres, cells were collected by centrifugation at 160×g for 5 min. The conditioned supernatant (conditioned medium) was removed and saved. The neurospheres were resuspended in 0.5 ml Trypsin/EDTA in HBSS (1×), incubated at 37° C. for 2 min and triturated gently to aid dissociation. Following a further 3 min incubation at 37° C. and trituration, 3 volumes of ice cold Neurosphere medium medium w/o EGF were added to stop further trypsin activity. […]
After 3 days of treatment, intracelluar ATP was measured using the ATP SL kit (Biothema) according to the manufacturer's instructions.

[2] = test system: Mouse Neural Stem Cells; assay: Neuronal differentiation (β-III Tubulin) of adult mouse neural stem cells; format: cell-based; conditions: 1 nM, 7 days
Description: Adult mouse neurosperes were dissociated with trypsin (Gibco) into single cells and transferred to poly-D-Lysine plates (BD) in the above culture medium, without growth factors, supplemented with 1% Fetal Calf Serum (Gibco). The cells were incubated over night to adhere to the plate. The medium was changed to culture medium, without growth factors, supplemented with 1 nM PDGF-AA or PDFG-BB (both from R&D Systems). The medium with new substance added every second day. The cells were incubated for a total of 7 days.
The cells were washed two times with PBS (Gibco) and fixed for 15 min RT with 4% Formaldehyde (Sigma) and permeabilized 20 min RT in 0.1% Triton X-100 (Sigma) in PBS. After fixation and permeabilization the cells were labelled with mouse monoclonal anti-β-III Tubulin (1:500 Promega). Primary antibody was visualized with anti mouse Texas-Red (1:100 Vector Laboratories). All antibodies were diluted in PBS with 0.1% Triton X-100.
The cells were washed twice with PBS (Gibco) and lysed with 200 ul lysis buffer/well. The lysis buffer contained PBS, 0.1% Triton X-100, 1 mM EDTA and 1 tab1. Protease inhibitor cocktail (Roche). The samples were run on a 4-12% Bis-Tris gel (Novex) under reduced conditions with MOPS buffer (Novex) and blotted onto a Hybond ECL nitrocellulose membrane (Amersham Biotech). Blocked in 5% ECL-Block (Amersham Biotech) in PBS+0.1% Tween 20 (Sigma). The membranes were labelled with mouse monoclonal anti-β-III Tubulin (1:5000 Promega). The primary antibody was detected using a secondary antibody anti-mouse-HRP (1:10000 Amersham Biotech) and ECL Plus+ Western Blot Detection Kit (Amersham Biotech). All antibodies were diluted in PBS with 0.1% Triton X-100, 1% ECL Block. The signal were then captured on ECL Hyper Film (Amersham Biotech)

B1: PDGF-BB: human recombinant PDGF-BB, platelet derived growth factor B-chain homodimer (protein)
chain: SLGSLTIAEPAMIAECKTRTEVFEISRRLIDRTNANFLVWPPCVEVQRCSGCCNNRNVQCRPTQVQLRPVQVRKIEIVRKKPIFKKATVTLEDHLACKCETVAAARPVT
- proliferative effect (intracellular ATP) [1]: concentration dependent proliferative effect
- number of β-III Tubulin positive cells in culture ([2]; compared to the control, FIG. 5): significantly increase the number of β-III Tubulin positive cells
- levels of β-III Tubulin protein (Western blot) ([2]; compared with the control, FIG. 6): significantly increased levels of β-III Tubulin protein
- neuronal differentiation of cultured mouse neural stem cells/progenitors ([2]; FIG. 5 and FIG. 6): trigger neuronal differentiation
